From EP1731613A2 (DEGUSSA AG, dated 2006)

Target: T1, Zwf sub-unit (Zwf protein) of glucose 6-phosphate dehydrogenase from Corynebacterium glutamicum ATCC13032 (Corynebacterium glutamicum ATCC13032)
T1 construct: also called Zwf gene product; 60 kDa protein
T1 chain: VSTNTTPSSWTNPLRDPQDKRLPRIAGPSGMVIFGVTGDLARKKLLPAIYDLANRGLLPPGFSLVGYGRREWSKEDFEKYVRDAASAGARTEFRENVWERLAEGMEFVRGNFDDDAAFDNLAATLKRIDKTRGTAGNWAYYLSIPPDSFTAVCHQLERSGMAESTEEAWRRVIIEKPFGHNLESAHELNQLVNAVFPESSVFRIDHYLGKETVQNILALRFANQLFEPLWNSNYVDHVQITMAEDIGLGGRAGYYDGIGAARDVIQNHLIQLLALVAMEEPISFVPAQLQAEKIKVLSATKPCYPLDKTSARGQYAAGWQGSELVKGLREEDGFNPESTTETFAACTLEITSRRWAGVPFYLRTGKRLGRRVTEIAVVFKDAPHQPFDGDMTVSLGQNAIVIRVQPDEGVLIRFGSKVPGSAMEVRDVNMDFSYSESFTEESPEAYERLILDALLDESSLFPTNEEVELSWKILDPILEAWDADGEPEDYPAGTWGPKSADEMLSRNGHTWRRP
Experiment: co-purification over DEAE, Red-Sepharose and 2'5'-ADP-sepharose and gel filtration (Superdex G200pg); SDS-PAGE

B1: OpcA sub-unit (OpcA protein) of glucose 6-phosphate dehydrogenase from Corynebacterium glutamicum ATCC13032 (enzyme)
chain: MIFELPDTTTQQISKTLTRLRESGTQVTTGRVLTLIVVTDSESDVAAVTESTNEASREHPSRVIILVVGDKTAENKVDAEVRIGGDAGASEMIIMHLNGPVADKLQYVVTPLLLPDTPIVAWWPGESPKNPSQDPIGRIAQRRITDALYDRDDALEDRVENYHPGDTDMTWARLTQWRGLVASSLDHPPHSEITSVRLTGASGSTSVDLAAGWLARRLKVPVIREVTDAPTVPTDEFGTPLLAIQRLEIVRTTGSIIITIYDAHTLQVEMPESGNAPSLVAIGRRSESDCLSEELRHMDPDLGYQHALSGLSSVKLETV
notes: also called OpcA gene product; 30 kDa protein
binding result: binds
